Where a chain is given by its changes, count along the chain named.

The results in this text go back to patent US20220187308A1 (published 2022).

One assay addresses T1, GC-hIgA (human).
T1 construct: Recombinant human IgA used as the antigen in the Biacore A100 screen of step (22-3); also called recombinant human IgA GC-hIgA; human IgA
As to the kind of experiment: SPR (Biacore A100), antibody from culture supernatant on a protein A chip, GC-hIgA as analyte, 25 C, 1.2 mM CaCl2, pH 7.4 (step 22-3). On the procedure:
The culture supernatant obtained by the above method was used to analyze GC-hIgA-binding ability using Biacore A100. Antibodies in the culture supernatant were immobilized onto Sensor chip CM5 (GE Healthcare Bio-Sciences Corp.) with protein A (Invitrogen Corp.) immobilized thereon in an appropriate amount by the amine coupling method. A buffer solution containing 20 mM ACES, 150 mM NaCl, 0.05% (w/v) Tween 20, and 1.2 mM CaCl₂) (pH 7.4) were used as a running buffer. GC-hIgA was also diluted with this buffer. Assay was all carried out at 25° C.

The target of assay [1] is T2, biotin-labeled recombinant human glypican 3 (human, UniProt P51654 25-563, biotin-labeled using EZ-Link NHS-PEG4-Biotin).
T2 construct: also called GPC3; biotin-labeled GPC3
T2 sequence (P51654 other isoform, or with tags, fused parts or gaps limits assumed): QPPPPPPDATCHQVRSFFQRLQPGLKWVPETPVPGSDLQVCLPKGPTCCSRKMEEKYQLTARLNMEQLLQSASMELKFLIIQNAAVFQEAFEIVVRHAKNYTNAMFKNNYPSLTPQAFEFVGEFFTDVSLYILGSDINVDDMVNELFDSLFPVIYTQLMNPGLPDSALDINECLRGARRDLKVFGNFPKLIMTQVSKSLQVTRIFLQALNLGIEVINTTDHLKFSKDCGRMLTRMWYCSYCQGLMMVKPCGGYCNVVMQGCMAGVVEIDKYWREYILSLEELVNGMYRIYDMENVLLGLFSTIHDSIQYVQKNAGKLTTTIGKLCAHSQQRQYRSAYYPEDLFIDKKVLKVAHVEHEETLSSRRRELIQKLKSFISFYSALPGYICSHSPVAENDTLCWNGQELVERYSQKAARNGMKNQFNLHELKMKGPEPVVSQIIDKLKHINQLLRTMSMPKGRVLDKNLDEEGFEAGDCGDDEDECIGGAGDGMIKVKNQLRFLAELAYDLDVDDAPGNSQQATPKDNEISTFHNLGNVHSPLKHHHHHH
The experiment in a line: phage ELISA (Fab displayed on phage) on biotin-labeled GPC3, 1.2 mM CaCl2 against 1 mM EDTA. The protocol: The plate was left standing at 37° C. for 30 minutes for incubation. […] The plate was incubated for 1 hour. […] The chromogenic reaction of the solution in each well was terminated by the addition of sulfuric acid. Then, the developed color was assayed on the basis of absorbance at 450 nm.

Another assay concerns the target T3, human HMGB1 (human, UniProt P09429 2-215).
T3 construct: Expressed in FreeStyle 293 cells and purified; analyte in the Biacore assay of step (26-5); also called hHMGB1; recombinant human HMGB1
T3 sequence: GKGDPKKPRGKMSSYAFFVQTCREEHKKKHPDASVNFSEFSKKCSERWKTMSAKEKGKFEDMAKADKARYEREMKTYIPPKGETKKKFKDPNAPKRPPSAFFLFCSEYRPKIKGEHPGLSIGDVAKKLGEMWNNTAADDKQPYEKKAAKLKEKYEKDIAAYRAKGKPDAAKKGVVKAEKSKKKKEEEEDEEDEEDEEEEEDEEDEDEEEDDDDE
As to the kind of experiment: SPR (Biacore T100), antibody captured via protein A/G on CM4, hHMGB1 as analyte, 25 C, 1.2 mM CaCl2, pH 7.4 against pH 5.8. On the procedure:
In order to judge the pH dependence of hHMGB1-binding activity of the antibodies HM_3_2_R_017 (heavy chain: SEQ ID NO: 131 and light chain: SEQ ID NO: 132), HM_3_2_R_054 (heavy chain: SEQ ID NO: 133 and light chain: SEQ ID NO: 134), and HM_4_1_R_001 (heavy chain: SEQ ID NO: 135 and light chain: SEQ ID NO: 136) obtained in the step (26-4), these antibodies were analyzed for their interaction with hHMGB1 using Biacore T100 (GE Healthcare Bio-Sciences Corp.). The interaction of antigen-antibody reaction was analyzed in solutions of pH 7.4 and pH 5.8 as neutral pH and acidic pH conditions, respectively. Approximately of 200 RU of each antibody of interest was captured onto Sensor chip CM4 (GE Healthcare Bio-Sciences Corp.) with protein A/G (Pierce Biotechnology Inc.) immobilized thereon in an appropriate amount by the amine coupling method. Two types of buffer solutions were used as running buffers: 20 mM ACES, 150 mM NaCl, 0.05% (w/v) Tween 20, and 1.2 mM CaCl₂) (pH 7.4); and 20 mM ACES, 150 mM NaCl, 0.05% (w/v) Tween 20, and 1.2 mM CaCl₂) (pH 5.8). hHMGB1 was also diluted with each of these buffers. Assay was all carried out at 25° C.
In the analysis on the interaction of antigen-antibody reaction using the HM_3_2_R_017 antibody, the HM_3_2_R_054 antibody, and the HM_4_1_R_001 antibody, the diluted hHMGB1 solution or a blank running buffer was injected at a flow rate of 10 μL/min for 60 seconds to […] onto the sensor chip. The HM_3_2_R_017 antibody, the HM_3_2_R_054 antibody, and the HM_4_1_R_001 antibody were interacted with hHMGB1. Then, 10 mM glycine-HCl (pH 1.5) was injected thereto at a flow rate of 30 μL/min for 30 seconds to regenerate the sensor chip.

Assay [2] deals with T4, biotinylated human HMGB1-Avi (human, UniProt P09429 2-215, biotin added at the C-terminal Avitag sequence by biotin ligase (BirA)).
T4 construct: also called biotin-labeled hHMGB1; hHMGB1-Avitag
T4 sequence: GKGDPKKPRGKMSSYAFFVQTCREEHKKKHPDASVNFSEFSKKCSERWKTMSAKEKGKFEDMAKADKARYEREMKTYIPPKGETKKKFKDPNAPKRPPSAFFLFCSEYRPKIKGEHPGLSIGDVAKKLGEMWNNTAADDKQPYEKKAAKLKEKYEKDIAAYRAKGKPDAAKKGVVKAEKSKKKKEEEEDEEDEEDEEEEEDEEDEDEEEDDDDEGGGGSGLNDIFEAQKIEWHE
The experiment in a line: phage ELISA (Fab displayed on phage) on biotin-labeled hHMGB1 on a StreptaWell plate, pH 7.6 against pH 5.5. On the procedure:
A phage-containing culture supernatant was collected by phage culture according to a conventional method (Methods Mol. Biol. (2002) 178, 133-145) from each single colony of the E. coli obtained after the third and fourth rounds of panning carried out in the step (26-2). After addition of BSA and CaCl₂) (final concentration: 4% BSA and 1.2 mM calcium ion), the phage-containing culture supernatant was subjected to ELISA by the following procedures: StreptaWell 96 microtiter plate (F. Hoffmann-La Roche Ltd.) was coated for 4 hours or longer with 100 μL of PBS containing biotin-labeled hHMGB1. Each well of the plate was washed with PBST to remove unbound antigens. Then, the well was blocked with 250 μL of 4% BSA-TBS (50 mM Tris, 300 mM NaCl, 2.5 mM CaCl₂), and 4% BSA) for 1 hour or longer. […] Each well was washed with 1.2 mM CaCl₂)/TBST (pH 7.6), and 1.2 mM CaCl₂)/TBS (pH 7.6) or 1.2 mM CaCl₂)/150 mM NaCl/50 mM MES (pH 5.5) was added thereto. The plate was left standing at 37° C. for 30 minutes for incubation. After washing with 1.2 mM CaCl₂)/TBST (pH 7.6), HRP-conjugated anti-M13 antibodies (Amersham Pharmacia Biotech Inc.) diluted with 4% BSA-TBS were added to each well. The plate was incubated for 1 hour. After washing with 1.2 mM CaCl₂)/TBST (pH 7.6), TMB single solution (Invitrogen Corp.) was added to the well. The chromogenic reaction of the solution in each well was terminated by the addition of sulfuric acid. Then, the developed color was assayed on the basis of absorbance at 450 nm.
A general note: ELISA stands for enzyme-linked immunosorbent assay.

Assay [3] addresses T5, biotinylated human IgA-Fc (human, UniProt P01876 123-333, biotin added at the C-terminal Avitag sequence by biotin ligase (BirA)).
T5 construct: also called biotin-labeled hIgA-Fc
The experiment in a line: phage ELISA (Fab displayed on phage) on biotin-labeled IgA-Fc, 1.2 mM CaCl2 against 1 mM EDTA (step 22-6).

Assay [4] deals with T5, biotinylated human IgA-Fc. The experiment in a line: phage ELISA (Fab displayed on phage) on biotin-labeled IgA-Fc, 1.2 mM CaCl2 against 1 mM EDTA (step 22-4). On the procedure:
Each well of the plate was washed with PBST to remove unbound antigens. […] The plate was left standing at 37° C. for 30 minutes for incubation. […] The plate was incubated for 1 hour. […] The chromogenic reaction of the solution in each well was terminated by the addition of sulfuric acid. Then, the developed color was assayed on the basis of absorbance at 450 nm.

T5 sequence (P01876 other isoform, or with tags, fused parts or gaps limits assumed): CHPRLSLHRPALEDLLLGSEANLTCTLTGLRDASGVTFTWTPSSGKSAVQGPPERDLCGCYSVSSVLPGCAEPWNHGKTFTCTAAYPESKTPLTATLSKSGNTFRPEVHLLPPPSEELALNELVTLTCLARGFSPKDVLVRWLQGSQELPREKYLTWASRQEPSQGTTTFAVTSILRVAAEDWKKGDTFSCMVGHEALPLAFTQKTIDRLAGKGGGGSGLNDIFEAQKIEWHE
T1 sequence (light, as listed by the source): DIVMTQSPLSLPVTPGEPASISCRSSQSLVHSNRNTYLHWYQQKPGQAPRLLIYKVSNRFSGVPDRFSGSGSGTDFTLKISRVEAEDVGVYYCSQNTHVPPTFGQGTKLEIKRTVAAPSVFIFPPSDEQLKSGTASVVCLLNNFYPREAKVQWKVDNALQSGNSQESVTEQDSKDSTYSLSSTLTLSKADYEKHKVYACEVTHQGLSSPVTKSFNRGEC

B1: GA1-IgG1 (antibody, V domains shown)
VH: EVQLVQSGAEVKKPGSSVKVSCKASGGTFSSYAISWVRQAPGQGLEWMGGIIPIFGTANYAQKFQGRVTITADESTSTAYMELSSLRSEDTAVYYCARVAPGNWGSPYFDYWGQGTLVTVSS
VL: DIQMTQSPSSLSASVGDRVTITCRASQSIEDDLAWYQQKPGKAPKLLIYEASSLQSGVPSRFSGSGSGTDFTLTISSLQPEDFATYYCQQRDSSPLTFGQGTKVEIKR
notes: From the Ca library; obtained in step (22-3)
Take B1: the binding result with GC-hIgA is “binds”.

B2: CSCM-01_023 (antibody, human IgG1, kappa, V domains shown)
VH: QVQLVQSGAEVKKPGASVKVSCKASGYTFTSYGISWVRQAPGQGLEWMGWISAYNGNTNYAQKLQGRVTMTTDTSTSTAYMELRSLRSDDTAVYYCARDSPLLWFGEPFFDYWGQGTLVTVSS
VL: B1 VL with E50H, S53T, R91S, S94Y
notes: Purified IgG in the ELISA of step (24-5)
In the case of B2, the binding result in assay [1] was “binds”.

B3: HM_4_1_R_001 (antibody, human IgG1, kappa, V domains shown)
VH: EVQLVESGGGLVQPGGSLRLSCAASGFTFSNYEMNWVRQAPGKGLEWISYISSSGRTFSYADSVKGRFTISRDNAKNSLYLQMNSLRAEDTAVYYCARDSGYSDGWYPSWFDSWGQGTLVTVSS
VL: B1 VL with E30N, D31S, D32H, E50H, S53N, R91H, D92S, S94Y, L96Y
notes: From His library 1; also called HM_4_1_R_001 antibody; HM_4_1R_001 antibody
Regarding B3, the binding result (with human HMGB1; in assay [2]) was “binds” throughout.

B4: GA3-IgG1 (antibody, V domains shown)
VH: QVQLVQSGAEVKKPGSSVKVSCKASGGTFSSYAISWVRQAPGQGLEWMGGIIPIFGTANYAQKFQGRVTITADESTSTAYMELSSLRSEDTAVYYCARGNGDYLEYFQHWGQGTLVTVSS
VL: B1 VL with E30S, S53N
notes: From the Ca library; obtained in step (22-6)
With B4, in assay [3], the binding result is on record as “binds”.

B5: GA2-IgG1 (antibody, V domains shown)
VH: QVQLVQSGAEVKKPGSSVKVSCKASGGTFSSYAISWVRQAPGQGLEWMGGIIPIFGTANYAQKFQGRVTITADESTSTAYMELSSLRSEDTAVYYCARPRWETAISSDAFDIWGQGTMVTVSS
VL: B1 VL with E30S, A34N, S53N, R91H, D92S
notes: From the Ca library; obtained in step (22-4)
Take B5: the binding result in assay [4] is listed as “binds”.
